From the RNAGym collection of RNA variant scans (doi:10.1073/pnas.2313332121)
Variants at the floor of the assay were thinned out.

B1: TPR 5TU (parent)
chain: GGAUCUUCUCGAUCUAACAAAAAAGACAAAUCUGCCACAAAGCUUGAGAGCAUCUUCGGAUGCAGAGGCGGCAGCCUUCGGUGGCGCGAUAGCGCCAACGUUCUCAACUAUGACACGCAAAACGCGUGCUCCGUUGAAUGGAGUUUAUCAUG

Variants of: B1
Assay: polymerase ribozyme fitness, log enrichment relative to wild type (log ratio); higher = more active; in vitro selection for triplet polymerase activity
Outline: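 Fitness compares each genotype's enrichment to that of the wild type on a logarithmic scale, averaging replicates with inverse-variance weights. The logarithm is base 2. Enrichment came from Illumina sequencing of input and output libraries after one triplicate round of in vitro selection, which included frozen incubation at −7 °C, of PCR-built, transcribed mutant libraries of each subunit of a heterodimeric triplet polymerase ribozyme. Only genotypes with ≥10 input reads and ≥1 read per output were kept.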

Compared with GGAUCUUCUUGAGCUAACAAAAAAGACAAAUCUGCCACAAAGCUAAAGAGCAUCUUCCGAUGUAGAGGCGGCAGCCUUCGGUGGCGCGAUAGCGCCAACGUUCUCAACUAUGACACGCAAAACGCGUGCUCCGUUGAAUGUAGUUUAUCAUG [C10U U13G U45A G46A G58C C63U G141U], GGAUCUUCUUGAUCUAACAAAAAAGACAAAUCUGCCACAAAGCUUGAGAGCAUCAUCGGAUGCAGAGGCGGCAGCCUUCGGUGGCGCGAUAGCGCCAACGUUCUCAACUAUGACACGCAAAACGCGUGCUCCGUUGAAUGGAGUUUAUCAUG [C10U U55A] is higher in “polymerase ribozyme fitness (log ratio)” value: at most -4.2 for the first, -2.91 for the second.

Compared with GGAUCUUCUCAAUCUAACAAAAAAGCGAAAUCUGUCACAAAGCUUGAGAGCAUCUUCGGAUGCAGAGGCGGCAGCCUUCGGUGGCGAGAUAGCGCCAACGUUCUCAACUAUGACACGCAAAACACGUGCUCCGUUGAAUGGAGUUUAUCAUG [G11A A26C C27G C35U C87A G124A], GGAUCUUCUCAAUCUAACAACAACGACAAAUCUGCCACAAAGUUUGAGAGCAUCUUCGGAUGCAGAGGCGGCAGCCUUCGGUGGAGCGAUAGCGCCAACGUUCUCAACUACGACACGCAAAACGCGUGCUCCGUUGAAUGGAGUUUAUCAUG [G11A A21C A24C C43U C85A U111C] is lower in “polymerase ribozyme fitness (log ratio)” value: -4.15 for the first, at most -4.2 for the second.

First: GGAUCUUCUUGAGCUAACAAAAAAGACAAAUCUGUCACAAAGCUUGAGAUCAUCUUCGCUUGCAGAGGCGGCAGCCUUCGGUGGAGCGAUAGCCCCAACGUUCUCAACUAUGACACGCAAAACGCGUGCUCCGUUGAAUGAAGUUUAUCAUG [C10U U13G C35U G50U G59C A60U C85A G94C G141A]
Second: GGAUCUUCUCAAUCUAACAAUAAAGACAAAUCUGCCACAAAGCUUGAGAGCAUCUUCGGAUGCAGAGGCGGCAGCCUUCGGUGGUGCGAUAGCGCCAACGUUCUCAACUAUGACACGCAAAACGCGUGCUCCGUUGAAUGGAGUUUAUCAUG [G11A A21U C85U]
The “polymerase ribozyme fitness (log ratio)” value of the first is lower: at most -4.2 for the first, -1.32 for the second.

Compared with GGAUCUUCUCAAUCUAGCAAAAAAGACAAAUCUGCCACAAAGUUUGAGAGCAUCUUCGGAUGCAGAGGCGGCAGCCUUCGGUGGCGCGAUAGCUCCAACGUUCUCAACUAUGACACGCAAAGCGCGUGCUCCGUUGAAUGUAGUUUAUCAUG [G11A A17G C43U G94U A122G G141U], GGAUCUUCUUGAUCUAACAAAAAAGACAAAUCUGCCACAAAGCUUGAGAGCAUCAUCGGAUGCAGAGGCGGCAGCCUUCGGUGUCGCGAUAGCGCCAACGUUCUCAACUAUGACACGCAAAACGCGUGCUCCGUUGAAUGGAGUUUAUCAUG [C10U U55A G84U] is higher in “polymerase ribozyme fitness (log ratio)” value: at most -4.2 for the first, -4.1 for the second.

Going from GGAUCUUCUCAAUCUAACAAAAUAGACAAAUCUGCCACAAAGCUUGAGAGCAACUUCGGAUGCAGAGGCGGCAGCCUUCGGUGGCGCGAUAUCGCCAACGUUCUCAAUUAUGACACGCAAAACGCGUGCUCCGUUGAAUGGUGUUUAUCAUG [G11A A23U U53A G92U C108U A142U] to GGAUCUUCUUGAUCUAACAAAAAAGACAAAUCUGCCACAAAGCUUGAGAGCAUCAUCGGAUGCAGAGGCGGUAGCCUUCGGUGGCGCGAUAGCGCCAACGUUCUCAACUAUGACACGCAAAACGCGUGCUCCGUUGAAUGGAGUUUAUCAUG [C10U U55A C72U], the “polymerase ribozyme fitness (log ratio)” value rises from at most -4.2 to -3.95.

Compared with GGAUCUUCUUGAUCUAACAAAAAAGACAAAUCUGCCACAAAGCUUGAGAGCAUCUUCGGAUGCAGAGGCGGCAGCCUUCGGUGGCGCGAUAGCGCCAACGUUCUCAACUAUGACACGCAAAACGCGUGCUCCGUUAAAUGGAGUUUAUCAUG [C10U G136A], GGAUCUUCUCAAUCUAACAAAAAGGACAAAUCUGCCACAAUGCUUGAGAGAAUCUUCGAAUGCAGAGGCGGCAGCCUUCAGUGUCGCGAAAGCGCCAACGUUCUCAACUAUGACACGCAAAACGCGUGCUCCGUUGAAUGGAGUUUAUCAUG [G11A A24G A41U C51A G59A G80A G84U U90A] is lower in “polymerase ribozyme fitness (log ratio)” value: -2.74 for the first, at most -4.2 for the second.

GGAUCUUCUCAAUCUAACAAGACAGACAAAUCUGCCACAAAGCUUGAGAGCAUUUUCGGAUGCAGAGGCCGCAGCAUUCGGUUGCGCGAUAGCGCCAACGUUCUCAACUAUGACACGCAAAACGCGUGCUCCGUUGAAUGGAGUUUAUCAUG [G11A A21G A23C C54U G70C C76A G83U] and GGAUCUUCUUGAUCUAACAAAAAAGACAAAUCUGCCACAAAGCAUGAGAGCAUCUUCGGAUGCAGAGGCGGCAGCCUUCGGUGGCGCGAUAGCGCCAACGUGCUCAACUAUGACACGCCAGACGCGUGCUCCGUUGCAUGGAAUUUAUCAUG [C10U U44A U102G A119C A121G A137C G143A] cannot be ordered by “polymerase ribozyme fitness (log ratio)” value: at most -4.2 for the first, at most -4.2 for the second.

Compared with GGAUCUUCUUGAUCUAACAAAAAAGACAAAUCUGCCACAAAGCUUGAGAGCAUCUUCGGAUGCAGAGGCGGCAGCCUUCGGUGGCGCGAUAGCGCCAACGUUCUCAACUAUGACACGCAAAACGCGUGCUCCGUUGAAUGAAGUUUAUCAUG [C10U G141A], GGAUCUUCUUGAGCUAACAAAAAAGAAAAAUCAGCCACAAAGCUUGAGAGCAUCUUCGGAUGCAGAGGCGGCAGGCUUCGGUGGCGCAAUAGCGCCAACGUUCUCAACUAUGACACGCAAAUCGCGUGCUCCGUUGAAUGGAGUUUAUCAUG [C10U U13G C27A U33A C75G G88A A122U] is lower in “polymerase ribozyme fitness (log ratio)” value: -2.07 for the first, at most -4.2 for the second.

GGAUCUUCUUGACCUAUCAAAAAAGACAAAUCUGCCACAAAGCUUGAGAGCAUCUUCGGAUGCAGAGGCGGCAGCAUUCGGUGGCGCGAUAGCGCCAACGUUCUUAACUAUGACACGCAAAACGCGUGCUCCGUUGAAUGGAGUUUAUCAUG [C10U U13C A17U C76A C105U] and GGAUCUUCUUGAUCUAACAAAAAAGACAAAUCUGCCACAAAGCUUGAGAGCACCAUCGGAUGCAGAGGCGGCAGCCUUCGGUGGCACCAUAGCGCCAACGUUCUCAACUAUGACACGCAAAACGCGUGCUCCGUUGAAUGGAGUUUAUCAUG [C10U U53C U55A G86A G88C] cannot be ordered by “polymerase ribozyme fitness (log ratio)” value: at most -4.2 for the first, at most -4.2 for the second.

With GGAUCUUCUCAAUCUAACAAAAAGGACAAAUCUGCCACAAAGCUUGAGAGCAUCUUCGGUUGCAGAGGCGGCAGCCUCCGGUGGCGCGAUAACGCCAACAUUCUCAACUAUGACACGCAAAACGCGUGCUCCGUUGAAUGGAGUUUAUCAUG [G11A A24G A60U U78C G92A G100A] the “polymerase ribozyme fitness (log ratio)” value was at most -4.2.
